The supplement of paper PMC9112550, “Optimization of the antimicrobial peptide Bac7 by deep mutational scanning” (BMC Biology, 2022)

Tested on: Escherichia coli TOP10
Test: shrunken log2 fold change of peptide-encoding DNA abundance (4.5 h post-induction vs induction); higher = less antimicrobial activity (less host growth inhibition)
Details: time post-induction: 4.5 h; library: site-saturation at positions 5, 18, 19, 20
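Further: peptides expressed intracellularly from a pBAD plasmid library in pooled LB shake-flask culture, induced with 0.3% L-arabinose, DNA abundance read by NGS, three biological replicates, DESeq2 with apeglm shrinkage.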

Sequence | shrunken log2 fold change
RRIRIRPPRLPRPRPRPGGRPRP | 0.229
RRIRWRPPRLPRPRPRPEELPRP | -0.00088
RRIRARPPRLPRPRPRPMTHPRP | 0.151
RRIRCRPPRLPRPRPRPSNKPRP | -0.44
RRIRFRPPRLPRPRPRPYSNPRP | -0.603
RRIRMRPPRLPRPRPRPQMGPRP | 0.0997
RRIRARPPRLPRPRPRPCIDPRP | 0.306
RRIRWRPPRLPRPRPRPTFIPRP | -0.417
RRIRKRPPRLPRPRPRPETQPRP | -0.119
RRIRKRPPRLPRPRPRPIVDPRP | 0.234
RRIRWRPPRLPRPRPRPWWVPRP | 0.13
RRIRNRPPRLPRPRPRPCRFPRP | -0.0153
RRIRYRPPRLPRPRPRPKYDPRP | -0.324
RRIRGRPPRLPRPRPRPQKGPRP | 0.0565
RRIRFRPPRLPRPRPRPCEQPRP | -0.00534
RRIRARPPRLPRPRPRPWVAPRP | 0.285
RRIRARPPRLPRPRPRPWRAPRP | 0.338
RRIRERPPRLPRPRPRPRIAPRP | -0.246
RRIRLRPPRLPRPRPRPCWCPRP | 0.0793
RRIRIRPPRLPRPRPRPPIQPRP | -0.468
RRIRIRPPRLPRPRPRPFKFPRP | -0.702
RRIRARPPRLPRPRPRPSCVPRP | 0.157
RRIRFRPPRLPRPRPRPSNLPRP | -0.56
RRIRHRPPRLPRPRPRPLLGPRP | -0.107
RRIRIRPPRLPRPRPRPSGSPRP | -0.17

Sequence | shrunken log2 fold change
RRIRSRPPRLPRPRPRPNHFPRP | -0.21
RRIRWRPPRLPRPRPRPWEPPRP | -0.0178
RRIRGRPPRLPRPRPRPSVPPRP | 0.215
RRIRRRPPRLPRPRPRPFLVPRP | -0.566
RRIRWRPPRLPRPRPRPYEMPRP | -0.893
RRIRNRPPRLPRPRPRPPGWPRP | 1.24
RRIRVRPPRLPRPRPRPLRLPRP | 0.641
RRIRHRPPRLPRPRPRPWRVPRP | 0.0326
RRIRPRPPRLPRPRPRPIWRPRP | 0.583
RRIRVRPPRLPRPRPRPTLPPRP | 0.335
RRIRQRPPRLPRPRPRPLRRPRP | 2.24
RRIRFRPPRLPRPRPRPDGCPRP | -0.0502
RRIRKRPPRLPRPRPRPAFRPRP | 0.576
RRIRNRPPRLPRPRPRPPTNPRP | 0.151
RRIRARPPRLPRPRPRPKNLPRP | -0.181
RRIRERPPRLPRPRPRPVPKPRP | 0.358
RRIRFRPPRLPRPRPRPAQHPRP | 0.265
RRIRQRPPRLPRPRPRPWMIPRP | 0.0219
RRIRIRPPRLPRPRPRPWALPRP | -0.0173
RRIRERPPRLPRPRPRPVKSPRP | -0.155
RRIRWRPPRLPRPRPRPLIVPRP | 0.0513
RRIRNRPPRLPRPRPRPPACPRP | 0.301
RRIRFRPPRLPRPRPRPNPDPRP | -0.0966
RRIRNRPPRLPRPRPRPGYDPRP | 0.166
RRIRMRPPRLPRPRPRPEHVPRP | 0.0396

Sequence | shrunken log2 fold change
RRIRHRPPRLPRPRPRPCIIPRP | -0.0445
RRIRLRPPRLPRPRPRPMDPPRP | 0.0507
RRIRIRPPRLPRPRPRPCHGPRP | -0.545
RRIRKRPPRLPRPRPRPRYNPRP | -0.312
RRIRFRPPRLPRPRPRPNGNPRP | -0.377
RRIRNRPPRLPRPRPRPIGSPRP | -0.00277
RRIRARPPRLPRPRPRPDTEPRP | 0.00829
RRIRVRPPRLPRPRPRPPWCPRP | 0.497
RRIRARPPRLPRPRPRPCDYPRP | -0.295
RRIRPRPPRLPRPRPRPGNSPRP | 0.0886
RRIRARPPRLPRPRPRPHELPRP | 0.0601
RRIRSRPPRLPRPRPRPFITPRP | -0.798
RRIRWRPPRLPRPRPRPRLPPRP | 0.471
RRIRIRPPRLPRPRPRPMSNPRP | 0.115
RRIRERPPRLPRPRPRPYQDPRP | -0.0275
RRIRQRPPRLPRPRPRPGRSPRP | 0.105
RRIRLRPPRLPRPRPRPIEAPRP | -0.00911
RRIRNRPPRLPRPRPRPTPLPRP | 0.268
RRIRMRPPRLPRPRPRPWESPRP | 0.109
RRIRDRPPRLPRPRPRPRSSPRP | -0.0289
RRIRIRPPRLPRPRPRPTCIPRP | -0.193
RRIRFRPPRLPRPRPRPEICPRP | 0.172
RRIRWRPPRLPRPRPRPVTFPRP | -0.186
RRIRNRPPRLPRPRPRPRDCPRP | 0.0442
RRIRGRPPRLPRPRPRPIIGPRP | -0.0822

Sequence | shrunken log2 fold change
RRIRDRPPRLPRPRPRPECYPRP | -0.00335
RRIRARPPRLPRPRPRPIGFPRP | -0.0732
RRIRMRPPRLPRPRPRPPNPPRP | 0.822
RRIRCRPPRLPRPRPRPTAMPRP | -0.113
RRIRKRPPRLPRPRPRPTMHPRP | 0.455
RRIRNRPPRLPRPRPRPPIVPRP | -0.154
RRIRLRPPRLPRPRPRPIIDPRP | -0.256
RRIRTRPPRLPRPRPRPPHLPRP | 0.0444
RRIRIRPPRLPRPRPRPESLPRP | -0.23
RRIRYRPPRLPRPRPRPYVTPRP | -0.115
RRIRDRPPRLPRPRPRPKNLPRP | -0.0874
RRIRCRPPRLPRPRPRPHGLPRP | -0.0989
RRIRGRPPRLPRPRPRPGSKPRP | 0.0737
RRIRSRPPRLPRPRPRPWWNPRP | -0.0574
RRIRSRPPRLPRPRPRPCFNPRP | -0.828
RRIRRRPPRLPRPRPRPCRDPRP | 0.0656
RRIRMRPPRLPRPRPRPDWLPRP | -0.0671
RRIRIRPPRLPRPRPRPPVRPRP | 0.172
RRIRMRPPRLPRPRPRPTHTPRP | 1.03
RRIRYRPPRLPRPRPRPVYQPRP | -0.341
RRIRDRPPRLPRPRPRPRDMPRP | -0.0954
RRIRERPPRLPRPRPRPYVTPRP | -0.447
RRIRGRPPRLPRPRPRPPSNPRP | 0.374
RRIRHRPPRLPRPRPRPCPSPRP | 0.0144
RRIRKRPPRLPRPRPRPTSEPRP | 0.79

Sequence | shrunken log2 fold change
RRIRMRPPRLPRPRPRPNQRPRP | 0.332
RRIRQRPPRLPRPRPRPCWEPRP | -0.126
RRIRCRPPRLPRPRPRPITIPRP | -0.261
RRIRERPPRLPRPRPRPSENPRP | -0.293
RRIRNRPPRLPRPRPRPIMLPRP | -0.482
RRIRGRPPRLPRPRPRPTIPPRP | -0.0601
RRIRWRPPRLPRPRPRPRFPPRP | 0.304
RRIRPRPPRLPRPRPRPIAMPRP | 0.0793
RRIRHRPPRLPRPRPRPKFCPRP | -0.132
RRIRVRPPRLPRPRPRPKVNPRP | -0.288
RRIRFRPPRLPRPRPRPQAKPRP | 0.128
RRIRNRPPRLPRPRPRPMAAPRP | 0.582
RRIRFRPPRLPRPRPRPTHEPRP | 0.171
RRIRHRPPRLPRPRPRPQIAPRP | -0.103
RRIRFRPPRLPRPRPRPFWFPRP | -0.275
RRIRKRPPRLPRPRPRPHYWPRP | -0.047
RRIRLRPPRLPRPRPRPADAPRP | 0.599
RRIRCRPPRLPRPRPRPIDVPRP | -0.856
RRIRARPPRLPRPRPRPMGPPRP | 0.161
RRIRSRPPRLPRPRPRPEIMPRP | 0.0625
RRIRERPPRLPRPRPRPVAPPRP | 0.246
RRIRSRPPRLPRPRPRPMANPRP | -0.397
RRIRKRPPRLPRPRPRPQICPRP | -0.0742
RRIRMRPPRLPRPRPRPNVFPRP | 0.136
RRIRGRPPRLPRPRPRPADWPRP | 1.03
